Test results from article PMC2647316 (Nucleic Acids Research, 2008).

Experiments:
Assay in all cases: SPR
[1] = target: T1, GkDnaC replicative helicase WT (Geobacillus kaustophilus HTA426, UniProt Q5KU75 1-454)
T1 sequence: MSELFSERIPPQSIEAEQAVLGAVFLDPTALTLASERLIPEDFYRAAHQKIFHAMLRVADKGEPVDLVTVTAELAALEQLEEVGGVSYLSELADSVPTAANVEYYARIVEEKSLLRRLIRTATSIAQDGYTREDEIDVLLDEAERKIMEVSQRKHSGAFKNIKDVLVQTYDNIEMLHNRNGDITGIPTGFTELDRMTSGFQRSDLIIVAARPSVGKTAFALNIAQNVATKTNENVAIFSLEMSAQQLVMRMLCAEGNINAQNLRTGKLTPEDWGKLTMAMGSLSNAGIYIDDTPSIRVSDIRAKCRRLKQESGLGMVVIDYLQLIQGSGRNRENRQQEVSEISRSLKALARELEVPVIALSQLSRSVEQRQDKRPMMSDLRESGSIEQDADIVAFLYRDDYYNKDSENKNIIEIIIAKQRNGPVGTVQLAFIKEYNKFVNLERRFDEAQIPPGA

GkDnaC R330A = target: T2, GkDnaC R330A (Geobacillus kaustophilus HTA426, UniProt Q5KU75 1-454, R330A)
T2 sequence: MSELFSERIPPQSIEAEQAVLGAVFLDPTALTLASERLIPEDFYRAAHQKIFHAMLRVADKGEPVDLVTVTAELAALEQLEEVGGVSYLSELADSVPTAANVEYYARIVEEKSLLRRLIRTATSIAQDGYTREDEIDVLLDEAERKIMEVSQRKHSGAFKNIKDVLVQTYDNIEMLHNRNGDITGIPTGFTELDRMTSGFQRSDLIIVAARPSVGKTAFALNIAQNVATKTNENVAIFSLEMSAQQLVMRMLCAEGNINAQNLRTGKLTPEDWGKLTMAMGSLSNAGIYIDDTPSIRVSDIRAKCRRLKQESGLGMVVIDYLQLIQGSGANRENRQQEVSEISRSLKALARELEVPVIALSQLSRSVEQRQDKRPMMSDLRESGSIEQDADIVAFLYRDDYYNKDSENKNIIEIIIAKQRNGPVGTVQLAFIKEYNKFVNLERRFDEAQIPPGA

GkDnaC R120A = target: T3, GkDnaC R120A (Geobacillus kaustophilus HTA426, UniProt Q5KU75 1-454, R120A)
T3 sequence: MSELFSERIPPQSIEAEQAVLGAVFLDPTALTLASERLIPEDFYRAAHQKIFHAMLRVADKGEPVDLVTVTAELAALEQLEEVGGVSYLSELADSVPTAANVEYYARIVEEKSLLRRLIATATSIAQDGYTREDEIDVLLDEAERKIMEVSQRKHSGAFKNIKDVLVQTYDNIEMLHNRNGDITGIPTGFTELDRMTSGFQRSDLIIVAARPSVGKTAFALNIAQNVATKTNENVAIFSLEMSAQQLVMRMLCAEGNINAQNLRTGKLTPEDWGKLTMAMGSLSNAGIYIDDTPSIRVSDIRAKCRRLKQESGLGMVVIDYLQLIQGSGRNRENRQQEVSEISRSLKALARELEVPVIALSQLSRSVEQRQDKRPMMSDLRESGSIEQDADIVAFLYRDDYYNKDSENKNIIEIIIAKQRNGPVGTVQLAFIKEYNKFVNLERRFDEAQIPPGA

GkDnaC K50A = target: T4, GkDnaC K50A (Geobacillus kaustophilus HTA426, UniProt Q5KU75 1-454, K50A)
T4 sequence: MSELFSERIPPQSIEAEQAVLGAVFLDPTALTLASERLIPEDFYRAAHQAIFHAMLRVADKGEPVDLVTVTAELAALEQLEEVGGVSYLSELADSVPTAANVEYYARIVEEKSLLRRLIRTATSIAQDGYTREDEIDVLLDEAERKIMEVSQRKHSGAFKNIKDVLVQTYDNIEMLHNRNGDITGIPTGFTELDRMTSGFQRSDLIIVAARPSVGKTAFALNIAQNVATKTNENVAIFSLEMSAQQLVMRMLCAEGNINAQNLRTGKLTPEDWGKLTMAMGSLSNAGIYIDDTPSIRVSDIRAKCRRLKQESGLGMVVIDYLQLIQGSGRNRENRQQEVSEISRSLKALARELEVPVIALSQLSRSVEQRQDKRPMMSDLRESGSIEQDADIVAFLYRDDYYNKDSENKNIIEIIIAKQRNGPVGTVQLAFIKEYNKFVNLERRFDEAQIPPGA

## TTTTTTTTTTTTTTTTTTTTTTTTTTTTTT (ssDNA) [5'Bio-(dT)30]
[1]
  Kd: 46.9 nM
GkDnaC R330A
  Kd: 17800 nM
GkDnaC R120A
  Kd: 1730 nM
GkDnaC K50A
  Kd: 1410 nM
